Data taken from IntAct's records for PubMed 20974926.

B1: Eukaryotic peptide chain release factor subunit 1 (Schizosaccharomyces pombe (strain ATCC 38366 / 972)), P79063 (parent)
chain: MSETAEKAIEIWKIRRLVKQLINCHGNGTSMITLIIPPGEQISRYSNMLAEEYGTASNIKSRVNRLSVLSAITSTRERLKLYNKVPDNGLVIYCGEVIMEGNKTRKLNIDFEPFKPINTSQYLCDNKFHTEALAELLESDQRFGFIVMDGHQTLYGVVSGSAREVLQRFTVDLPKKHGRGGQSALRFARLRDEKRHNYVRKVAEGAVQHFITDDKPNVAGIVLAGSADFKTELGQSDLFDQRLQSRIIKTVDVSYGGDAGFNQAIELAADTLSNVKYVQEKKLIQRFFDEISLDSGKYCFGVVDTMNALQEGAVETLLCFADLDMIRYEFKNSEGNPVITYMTKEQEEKDSTNSFLLDKDTGAEMELVSSMLLSEWLAEHYKDYGANLEFVSDRSQEGMQFVKGFGGIGAVMRYQLDLSMLDPESDEFYSDSD
partner: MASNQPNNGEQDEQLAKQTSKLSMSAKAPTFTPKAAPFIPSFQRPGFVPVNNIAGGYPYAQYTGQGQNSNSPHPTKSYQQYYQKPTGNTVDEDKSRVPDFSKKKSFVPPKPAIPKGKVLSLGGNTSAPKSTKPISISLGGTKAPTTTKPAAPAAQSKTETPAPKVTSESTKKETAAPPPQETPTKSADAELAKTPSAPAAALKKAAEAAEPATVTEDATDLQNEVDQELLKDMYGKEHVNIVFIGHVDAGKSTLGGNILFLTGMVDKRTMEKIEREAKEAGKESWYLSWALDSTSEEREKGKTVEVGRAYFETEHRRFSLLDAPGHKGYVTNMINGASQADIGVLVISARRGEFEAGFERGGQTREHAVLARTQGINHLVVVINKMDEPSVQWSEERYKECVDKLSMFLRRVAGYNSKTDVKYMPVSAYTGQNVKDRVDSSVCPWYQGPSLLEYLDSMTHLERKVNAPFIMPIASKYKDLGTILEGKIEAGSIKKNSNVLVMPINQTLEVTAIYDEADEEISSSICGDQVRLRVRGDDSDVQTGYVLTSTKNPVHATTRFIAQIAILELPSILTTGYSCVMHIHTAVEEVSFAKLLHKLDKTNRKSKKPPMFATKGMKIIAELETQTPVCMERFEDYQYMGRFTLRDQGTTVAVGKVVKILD
B2: Peptide chain release factor subunit 1 (Aeropyrum pernix (strain ATCC 700893 / DSM 11879 / JCM 9820 / NBRC 100138 / K1)), Q9YAF1 (parent)
chain: MSQGRLEERLTISKRELARLLKELKKWSAPATVLLSLYIPPGRPLSDVMTLLRQEYSITDNIKLKRTRQAVKRALSAAMDRLQMLTSTPPNGLVLFCGEDMSTGKFECFMFSPPEPIRVFYYRTDKRFITDFLEDMVEDNNAIGIIIVERDQATIGLLKGARLEVLKELEGFVPGKHKMGGQSQRRYERIIEQMVDEFFKKVGEEASNLLVPLAEKGVLKGVIVAGPGLAKQEFVEGNYLDYRLKKILAPELVDVAYQGLQGLKEAVMKAEKVVEAQMYRDAVNAMEEFKLHLAKGTGMIVYGEKDVEAALEMGAVKTLLIHESREDLEEWVEKAKSSGAQVIVVPESLAEAEWFLKTFGGLAGILRFRISTV
partner: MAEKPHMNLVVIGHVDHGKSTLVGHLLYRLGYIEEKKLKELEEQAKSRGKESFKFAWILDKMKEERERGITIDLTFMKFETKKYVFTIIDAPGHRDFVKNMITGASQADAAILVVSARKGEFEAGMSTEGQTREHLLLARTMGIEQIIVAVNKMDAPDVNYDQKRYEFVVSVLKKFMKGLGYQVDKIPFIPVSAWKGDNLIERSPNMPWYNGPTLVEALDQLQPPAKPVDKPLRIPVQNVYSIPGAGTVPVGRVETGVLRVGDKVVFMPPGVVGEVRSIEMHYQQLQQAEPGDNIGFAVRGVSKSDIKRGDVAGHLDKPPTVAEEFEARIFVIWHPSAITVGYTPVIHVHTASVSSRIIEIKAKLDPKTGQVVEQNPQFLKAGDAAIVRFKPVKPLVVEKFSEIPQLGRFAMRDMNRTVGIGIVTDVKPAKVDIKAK

Variants of: B1
Conditions: with erf3_schpo sup35, O74718

Row | Variant | effect of a mutation on the interaction
1 | MSETAEKAIEIWKIRRLVKQLINCHGNGTSMITLIIPPGEQISRYSNMLAEEYGTASNIKSRVNRLSVLSAITSTRERLKLYNKVPDNGLVIYCGEVIMEGNKTRKLNIDFEPFKPINTSQYLCDNKFHTEALAELLESDQRFGFIVMDGHQTLYGVVSGSAREVLQRFTVDLPKAHGRGGQSALRFARLRDEKRHNYVRKVAEGAVQHFITDDKPNVAGIVLAGSADFKTELGQSDLFDQRLQSRIIKTVDVSYGGDAGFNQAIELAADTLSNVKYVQEKKLIQRFFDEISLDSGKYCFGVVDTMNALQEGAVETLLCFADLDMIRYEFKNSEGNPVITYMTKEQEEKDSTNSFLLDKDTGAEMELVSSMLLSEWLAEHYKDYGANLEFVSDRSQEGMQFVKGFGGIGAVMRYQLDLSMLDPESDEFYSDSD [K176A] | decreasing interaction
2 | MSETAEKAIEIWKIRRLVKQLINCHGNGTSMITLIIPPGEQISRYSNMLAEEYGTASNIKSRVNRLSVLSAITSTRERLKLYNKVPDNGLVIYCGEVIMEGNKTRKLNIDFEPFKPINTSQYLCDNKFHTEALAELLESDQRFGFIVMDGHQTLYGVVSGSAREVLQRFTVDAPKKHGRGGQSALRFARLRDEKRHNYVRKVAEGAVQHFITDDKPNVAGIVLAGSADFKTELGQSDLFDQRLQSRIIKTVDVSYGGDAGFNQAIELAADTLSNVKYVQEKKLIQRFFDEISLDSGKYCFGVVDTMNALQEGAVETLLCFADLDMIRYEFKNSEGNPVITYMTKEQEEKDSTNSFLLDKDTGAEMELVSSMLLSEWLAEHYKDYGANLEFVSDRSQEGMQFVKGFGGIGAVMRYQLDLSMLDPESDEFYSDSD [L173A] | decreasing interaction

Variants of: B2
Conditions: with ef1a_aerpe tuf

Row | Variant | effect of a mutation on the interaction
3 | MSQGRLEERLTISKRELARLLKELKKWSAPATVLLSLYIPPGRPLSDVMTLLRQEYSITDNIKLKRTRQAVKRALSAAMDRLQMLTSTPPNGLVLFCGEDMSTGKFECFMFSPPEPIRVFYYRTDKRFITDFLEDMVEDNNAIGIIIVERDQATIGLLKGARLEVLKELEGFVPGKHKMGGQSQRRYERIIEQMVDEFFKKVGEEASNLLVPLAEKGVLKGVIVAGPGLAKQEFVEGNYLDYRLKKILAPELVDVAYQGLQGLKEAVMKAEKVVEAQMYRDAVNAMEEFKLHLAKGTGMIVYGEKDVEAALEMGAVKTLLIHESREDLEEWVEKAKSSGAQVIVVPESLAEAEAFLKTFGGLAGILRFRISTV [W354A] | disrupting interaction
4 | MSQGRLEERLTISKRELARLLKELKKWSAPATVLLSLYIPPGRPLSDVMTLLRQEYSITDNIKLKRTRQAVKRALSAAMDRLQMLTSTPPNGLVLFCGEDMSTGKFECFMFSPPEPIRVFYYRTDKRFITDFLEDMVEDNNAIGIIIVERDQATIGLLKGARLEVLKELEGFVPGKHKMGGQSQRRYERIIEQMVDEFFKKVGEEASNLLVPLAEKGVLKGVIVAGPGLAKQEFVEGNYLDYRLKKILAPELVDVAYQGLQGLKEAVMKAEKVVEAQMYRDAVNAMEEFALHLAKGTGMIVYGEKDVEAALEMGAVKTLLIHESREDLEEWVEKAKSSGAQVIVVPESLAEAEWFLKTFGGLAGILRFRISTV [K290A] | disrupting interaction
5 | MSQGRLEERLTISKRELARLLKELKKWSAPATVLLSLYIPPGRPLSDVMTLLRQEYSITDNIKLKRTRQAVKRALSAAMDRLQMLTSTPPNGLVLFCGEDMSTGKFECFMFSPPEPIRVFYYRTDKRFITDFLEDMVEDNNAIGIIIVERDQATIGLLKGARLEVLKALEGFVPGKHKMGGQSQRRYERIIEQMVDEFFKKVGEEASNLLVPLAEKGVLKGVIVAGPGLAKQEFVEGNYLDYRLKKILAPELVDVAYQGLQGLKEAVMKAEKVVEAQMYRDAVNAMEEFKLHLAKGTGMIVYGEKDVEAALEMGAVKTLLIHESREDLEEWVEKAKSSGAQVIVVPESLAEAEWFLKTFGGLAGILRFRISTV [E168A] | decreasing interaction
6 | MSQGRLEERLTISKRELARLLKELKKWSAPATVLLSLYIPPGRPLSDVMTLLRQEYSITDNIKLKRTRQAVKRALSAAMDRLQMLTSTPPNGLVLFCGEDMSTGKFECFMFSPPEPIRVFYYRTDKRFITDFLEDMVEDNNAIGIIIVERDQATIGLLKGARLEVLKELEGFVPGKHKMGGQSQRRYERIIEQMVDEFFKKVGEEASNLLVPLAEKGVLKGVIVAGPGLAKQEFVEGNYLDYRLKKILAPELVDVAYQGLQGLKEAVMKAEKVVEAQMYRDAVNAMEEFKLHLAKGTGMIVYGEKDVEAALEMGAVKTLLIHESREDLEEWVEKAKSSGAQVIVVPESLAEAEWFLKTAGGLAGILRFRISTV [F359A] | disrupting interaction
7 | MSQGRLEERLTISKRELARLLKELKKWSAPATVLLSLYIPPGRPLSDVMTLLRQEYSITDNIKLKRTRQAVKRALSAAMDRLQMLTSTPPNGLVLFCGEDMSTGKFECFMFSPPEPIRVFYYRTDKRFITDFLEDMVEDNNAIGIIIVERDQATIGLLKGARLEVLKELEGFVPGKHKMGGQSQRRYERIIEQMVDEFFKKVGEEASNLLVPLAEKGVLKGVIVAGPGLAKQEFVEGNYLDYRLKKILAPELVDVAYQGLQGLKEAVMKAEKVVEAQMYRDAVNAMEEFKLHAAKGTGMIVYGEKDVEAALEMGAVKTLLIHESREDLEEWVEKAKSSGAQVIVVPESLAEAEWFLKTFGGLAGILRFRISTV [L293A] | disrupting interaction
8 | MSQGRLEERLTISKRELARLLKELKKWSAPATVLLSLYIPPGRPLSDVMTLLRQEYSITDNIKLKRTRQAVKRALSAAMDRLQMLTSTPPNGLVLFCGEDMSTGKFECFMFSPPEPIRVFYYRTDKRFITDFLEDMVEDNNAIGIIIVERDQATIGLLKGARLEVLKELEGFVPGKHKMGGQSQRRYERIIEQMVDEFFKKVGEEASNLLVPLAEKGVLKGVIVAGPALAKQEFVEGNYLDYRLKKILAPELVDVAYQGLQGLKEAVMKAEKVVEAQMYRDAVNAMEEFKLHLAKGTGMIVYGEKDVEAALEMGAVKTLLIHESREDLEEWVEKAKSSGAQVIVVPESLAEAEWFLKTFGGLAGILRFRISTV [G228A] | disrupting interaction
